Measured values as given in patent publication EP4386000A1 (Nanjing Novoacine Bio-Technology Co., Ltd., dated 2024).
Where two headings read alike, the source gives them in different places.

T1: human CD25 (NP_000408.1) (Met 1-Cys 213) C-terminally fused with 6-histidine tag (human, UniProt P01589 22-213)
T1 construct: range 1-213; Expressed in CHO-K1 cells; also called human CD25-his
T1 sequence: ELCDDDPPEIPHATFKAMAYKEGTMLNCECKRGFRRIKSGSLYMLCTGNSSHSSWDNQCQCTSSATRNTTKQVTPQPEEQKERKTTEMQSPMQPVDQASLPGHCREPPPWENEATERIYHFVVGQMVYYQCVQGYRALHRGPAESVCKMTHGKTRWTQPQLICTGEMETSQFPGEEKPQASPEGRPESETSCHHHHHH

T2: human CD25 on CHO-K1/hCD25 cells (human, UniProt P01589 22-272)
T2 construct: whole, on cells; The construct of the cell line is not described
T2 sequence (looked up): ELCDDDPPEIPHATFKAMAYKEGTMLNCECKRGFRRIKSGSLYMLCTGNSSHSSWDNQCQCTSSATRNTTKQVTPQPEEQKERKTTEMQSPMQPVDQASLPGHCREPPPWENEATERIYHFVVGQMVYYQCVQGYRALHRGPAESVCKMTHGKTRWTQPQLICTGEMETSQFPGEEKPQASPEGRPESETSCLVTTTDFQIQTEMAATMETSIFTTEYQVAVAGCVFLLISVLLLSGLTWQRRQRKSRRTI

T3: Mouse CD25-his (UniProtKB-P01590, Met1-Lys213) (mouse, UniProt P01590 22-213)
T3 construct: range 1-213; Range begins at Met1 (includes the signal peptide); not shown: his tag
T3 sequence (looked up): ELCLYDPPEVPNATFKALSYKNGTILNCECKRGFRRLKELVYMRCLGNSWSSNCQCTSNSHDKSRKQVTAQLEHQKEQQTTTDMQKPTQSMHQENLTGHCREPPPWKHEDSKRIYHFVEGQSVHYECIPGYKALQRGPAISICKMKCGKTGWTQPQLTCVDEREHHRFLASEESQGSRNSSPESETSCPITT

T4: CD25 on CD4+CD25+ Treg cells isolated from human PBMCs (human, UniProt P01589 22-272)
T4 sequence (looked up): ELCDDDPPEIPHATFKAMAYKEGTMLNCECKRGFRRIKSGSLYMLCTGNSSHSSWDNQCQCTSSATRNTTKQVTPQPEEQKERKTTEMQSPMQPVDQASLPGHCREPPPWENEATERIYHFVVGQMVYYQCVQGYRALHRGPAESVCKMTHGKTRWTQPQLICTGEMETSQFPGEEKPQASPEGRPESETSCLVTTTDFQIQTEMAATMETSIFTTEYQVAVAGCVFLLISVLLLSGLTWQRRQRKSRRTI


Columns and labels:
[1] = biological target: T1, human CD25 (NP_000408.1) (Met 1-Cys …); test: SPR (BIAcore X100), human CD25-his captured by anti-histidine antibody, antibody as analyte, 1:1 model
[2] = biological target: T1, human CD25 (NP_000408.1) (Met 1-Cys …); test: as above; remark: listed apart in the source
[3] = biological target: T2, human CD25 on CHO-K1/hCD25 cells; test: flow cytometry on CHO-K1/hCD25 cells
[4] = biological target: T1, human CD25 (NP_000408.1) (Met 1-Cys …); test: ELISA, human CD25-his coated
[5] = biological target: T3, Mouse CD25-his (UniProtKB-P01590, …); test: ELISA, mouse CD25-his coated
[6] = biological target: T4, CD25 on CD4+CD25+ Treg cells isolated …; test: cell-based or functional assay
[7] = biological target: T5, cyno CD25-his (NCBI-H6WS54, Met1-Arg213) (cyno); test: ELISA, cyno CD25-his coated
T5 construct: range 1-213; Range begins at Met1 (includes the signal peptide)

Row | Binder | Kd [1] [nM] | koff [1] [s⁻¹] | kon [1] [M⁻¹ s⁻¹] | Kd [2] [nM] | koff [2] [s⁻¹] | kon [2] [M⁻¹ s⁻¹] | EC50 [3] [µg/mL] | Relative activity (%) compared with 686 [3] [%] | EC50 [4] [µg/mL] | Relative activity (%) compared with 686 [4] [%] | binding result [5] | EC50, killing Tregs in vitro (ADCC reporter, jurkat/CD16a/NFAT-luc) [6] [µg/mL] | Relative activity (%) compared with 686, killing Tregs in vitro [6] [%] | EC50 [7] [µg/mL]
1 | humanized antibody 2046-36H1L1 (antibody, human IgG1, kappa, V domains shown) VH: EIQLVQSGSELKKPGASVKVSCKASGYTFTTAGMQWVRQAPGQGLEWMGWINTHSGVPKYAEDFKGRFVFSLDTSVSTAYLQISSLKAEDTAVYYCASDYAFGYWGQGTLVTVSS VL: DVVMTQSPLSLPVTLGQPASISCKSSQSLLYSNGKTYLYWLQQRPGQSPRRLIYLVSKLDSGVPDRFSGSGSGTDFTLKISRVEAEDLGVYYCVQGTHFPYTFGQGTKLEIKR | 0.994 | 0.00394 | 3.96e+06 | – | – | – | – | – | – | – | – | – | – | –
2 | humanized antibody 2047-10H2L2 (antibody, human IgG1, kappa, V domains shown) VH: EVQLVQSGAEVKKPGATVKISCKGSGYTFTDYAMHWVQQAPGKGLEWMGVISTYSGNTNYNQKFKGRVTITVDKSTSTAYMELSSLRSEDTAVYYCARSYGNYPFDYWGQGTLVTVSS VL: DIQMTQSPSSLSASVGDRVTITCKASQDITSYLSWFQQKPGKAPKTLIYRANRLVDGVPSRFSGSGSGQDYTLTISSLQPEDMATYYCLQYDEFPYTFGQGTKLEIKR | 4.46 | 0.00205 | 461000 | – | – | – | – | – | – | – | – | – | – | –
3 | chimeric antibody 2047-3H8L2 (antibody, human IgG1, kappa, V domains shown, Chimeric, human IgG1/kappa; also called 2047-3ix) VH: QVQLKQSGAELVKPGASVKMSCKTSGYTFTDYVISWVKQRTGQGLEWIGEIYPGSGSTYYNEKFKGKATLTADISSNTAYMQLSSLTSEDSAVYFCASINFDYWGHGTTLTVSS VL: DIVMTQSPATLSVTPGDRVSLSCRASQSISDYLHWYQQKSHESPRLLIKYASQSISGIPSRFSGSGSGSDFTLSINSVEPEDVGVYYCQNGHSFPYTFGGGTKLEIKR | – | – | – | 0.308 | 7.26e-05 | 236000 | 0.00143 | 205 | 0.111 | 93.6 | no binding (tested: starting at 100 ng/mL) | 857 | 15.2 | 0.189
4 | humanized antibody 2046-111H1L1-m2 (antibody, human IgG1, kappa, V domains shown) VH: EVQLQESGPGLVKPSQTLSLTCTVSGHSITSDYAWNWIRQPPGKGLEWIGYISYSGSTIYNPSLKSRVTISRDTSKNQFSLKLSSVTAADTAVYYCARWLLQNYYAMDYWGQGTLVTVSS VL: EIVLTQSPGTLSLSPGERATLSCRSSQSLVHSNGNTYLHWYQQKPGQAPRLLIYKVSNRFSGIPDRFSGSGSGTDFTLTISRLEPEDFAVYYCSQSTHVPLTFGQGTKLEIKR | 6.35 | 0.00414 | 652000 | – | – | – | – | – | – | – | – | – | – | –
5 | chimeric antibody 2046-111H2L1 (antibody, human IgG1, kappa, V domains shown, Chimeric, human IgG1/kappa) VH: DVQLQESGPGLVKPSQSLSLTCTVTGHSITSDYAWNWIRQFPGNKLEWMGYISYSGSTIYNPSLKSRISITRDTSKNQFFLQLNSVTTEDTATYYCARWLLQNYYAMDYWGQGTSVTVSS VL: DVVMTQTPLSLPVSLGDQASISCRSSQSLVHSNGNTYLHWYLRKPGQSPKLLIYKVSNRFSGVPDRFSGSGSGTDFTLKISRVEAEDLGVYFCSQSTHVPLTFGAGTKLELKR | – | – | – | 0.819 | 0.000431 | 526000 | 0.00109 | 132 | 0.0989 | 105 | no binding (tested: starting at 100 ng/mL) | 89.8 | 145 | 0.0447
6 | chimeric antibody 2046-61H1L2 (antibody, human IgG1, kappa, Chimeric, human IgG1/kappa; also called 2046-61ix) heavy: not shown light: DVVMTQTPLSLPVSLGDQASISCRSSQSLVHSNGNTYLHWNLQKPGQSPKLLIYKVSNRFSGVPDRFSGSGSGTDFTLKISRVEAEDLGVYFCSQSTHVPLTFSAGTKLELKRTVAAPSVFIFPPSDEQLKSGTASVVCLLNNFYPREAKVQWKVDNALQSGNSQESVTEQDSKDSTYSLSSTLTLSKADYEKHKVYACEVTHQGLSSPVTKSFNRGEC | – | – | – | 9.44 | 0.0121 | 1.28e+06 | 0.00114 | 107 | 0.144 | 72.2 | no binding (tested: starting at 100 ng/mL) | 34.1 | 380 | 0.0601
7 | chimeric antibody 2046-2H1L1 (antibody, human IgG1, kappa, V domains shown, Chimeric (murine V, human IgG1/kappa); also called 2046-2ix) VH: DVQLQESGPGLVKPSQSLSLTCTVTGYSITSDYAWNWIRHFPGNKLEWMGYITYSGSTVYNPSLKSRISITRDTSKNHFFLQLNSVTTEDTATYYCARWLLQIYYAMDYWGQGTSVTVSS VL: DVVMTQTPLSLPVSLGDQASISCRSSQSLVHSNGNTYLHWYLQKPGQSPKLLIYKVSNRFSGVPDRFSGSGSGTDFTLKISRVEAEDLGVYFCSQSTHVPLTFGAGTKLELKR | – | – | – | 4.27 | 0.00318 | 745000 | 0.00192 | 63.8 | 0.105 | 99 | no binding (tested: starting at 100 ng/mL) | 22.2 | 584 | 0.0594
8 | chimeric antibody 2046-24H2L1 (antibody, human IgG1, kappa, V domains shown, Chimeric, human IgG1/kappa; also called 2046-24ix) VH: DVQLQESGPGLVKPSQSLSLTCTVTGYSITSDYAWNWIRQFPGNKLEWMGYISYGGTTIYNPSLKSRISITRDTSKNQFFLQLNSVTTEDTATYYCARWLLQNYYAMDYWGQGTSVTVSS VL: DVVMTQTPLSLPVSLGDQASISCRSSQSLVHSNGNTYLHWYLQKPGQSPKVLIYKVSNRFSGVPDRFSGSGSGTDFTLKISRVEAEDLGVYFCSQNTHVPLTFGAGTKLELKR | – | – | – | 7.63 | 0.00349 | 458000 | 0.00143 | 131 | 0.106 | 98.2 | no binding (tested: starting at 100 ng/mL) | 26.5 | 491 | 0.0424
9 | chimeric antibody 2046-18H1L1 (antibody, human IgG1, kappa, V domains shown, Chimeric, human IgG1/kappa; also called 2046-18ix) VH: DVQLQESGPGLVKPSQSLSLTCTVTGYSITSDYAWNWIRQFPGNKLEWMGYISYSGITIYNPSLKSRISITRDTSKNQFFLQLNSVTTEDTATYYCARWLLQIYYAMDYWGQGTSVTVSS VL: DVVMTQTPLSLPVSLGDQASISCSSSQSLVHSNGNTYLHWYLHKPGQSPKLLIYKVSNRFSGVPDRFSGSGSGTDFTLKISRVEAEDLGVYFCSQSTHVPLTFGAGTKLELKR | – | – | – | 0.703 | 0.000326 | 463000 | 0.00171 | 110 | 0.102 | 102 | no binding (tested: starting at 100 ng/mL) | 31.7 | 410 | 0.0483
10 | humanized antibody 2047-3H1L2 (antibody, human IgG1, kappa, V domains shown) VH: EVQLVQSGAEVKKPGATVKISCKTSGYTFTDYVISWVQQAPGKGLEWMGEIYPGSGSTYYNEKFKGRVTITADISTNTAYMELSSLRSEDTAVYYCASINFDYWGQGTLVTVSS VL: EIVMTQSPATLSLSPGERATLSCRASQSISDYLHWYQQKPGQAPRLLIKYASQSISGIPARFSGSGSGSDFTLTISSLQPEDVAVYYCQSGHSFPYTFGQGTKLEIKR | 1.43 | 0.000498 | 348000 | – | – | – | – | – | – | – | – | – | – | –
